Data on two substances can be found in patent US12673115B2, “Nucleic acid-peptide-nucleic acid conjugate molecules and methods of making the same” (ARIZONA BOARD OF REGENTS ON BEHALF OF ARIZONA STATE …, priority 2021, dated 2026).

In test [1] the target is T1, human matrix metalloproteinase 8 (MMP8) (Homo sapiens, UniProt P22894).
T1 construct: purchased PerkinElmer
As to the kind of experiment: Cleavage of peptide-linked DX tile dimer by MMP8, native PAGE. The format is biochemical. To be noted: 4 ng protein, incubation for 48 h at 37° C. in PBS. The text has this: As previously mentioned, one of our goals for these DPD triblock molecules is to use them as enzymatically-cleavable latches for a DNA nanostructure, e.g. to close the lid of a DNA origami box or “nano-bot”. To probe this effect, we used our DPD triblock to link together two model DNA nanostructures: double crossover (“DX” tiles), defined nanoscale objects 14 nm in length and 4 nm wide. DX tiles are composed of five unique strands—two edge strands, one central strand, and two crossover strands—and we designed two tiles that would have DNA1 and DNA2 as respective crossover strands (see FIG. 3A and Examples for tile design and strand composition). We surmised that upon annealing (95-4° C., over 2 h) the constituent strands for these tiles with the DNA1-MMPpep-DNA2 conjugate both tiles would form simultaneously, with the full hybridization of DNA1 and DNA2 into the corresponding tiles breaking the DPD hairpin. Addition of MMP8 to the DX tile dimer should cleave MMPpep, and restore the two separate DNA nanostructures.
We probed this system by native (non-denaturing) PAGE, FIG. 3A. Lanes 1 and 2 show the annealed DX tile with DNA2 incorporated, and the second DX tile with DNA1-MMPpep-(prA) respectively. […]
Polyacrylamide gel electrophoresis (PAGE). […] DX tiles were analyzed using 6% native polyacrylamide gels, with 1×TAE containing 12.5 mM Mg^2+ as a running buffer, at 200 V for 160 min.

The next test deals with integrin. To be noted: cyclic conformation approximating presentation on fibronectin; cited from earlier work.

Square brackets hold non-standard residues; d marks the D form. Primed or numbered codes have the meaning given here. Lys(N3) = [N-]=[N+]=NCCCC[C@H](N)C(=O)O; prA″ = not defined here

T1 sequence (P22894 101-467): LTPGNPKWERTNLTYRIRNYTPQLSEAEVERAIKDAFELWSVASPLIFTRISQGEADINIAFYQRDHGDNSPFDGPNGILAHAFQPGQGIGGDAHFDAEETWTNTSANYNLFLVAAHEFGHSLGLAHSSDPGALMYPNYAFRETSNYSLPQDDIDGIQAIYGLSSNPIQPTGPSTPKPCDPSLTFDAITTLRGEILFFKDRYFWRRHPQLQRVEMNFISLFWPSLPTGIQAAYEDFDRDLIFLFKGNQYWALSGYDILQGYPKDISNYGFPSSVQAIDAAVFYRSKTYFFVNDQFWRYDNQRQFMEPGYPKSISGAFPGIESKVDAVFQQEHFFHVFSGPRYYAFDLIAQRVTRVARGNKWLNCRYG

In the case of “(prA)GQGIPQGWGG(azK) ({prA″}-GQGIPQGWGG[Lys(N3)]-NH2; not fully specified; printed as (prA)GQGIPQGWGG(azK); reading uncertain) [MMPpep-scram, tested as linker of a tile dimer]”, in test [1], the “cleavage of DX tile dimer to individual tiles after addition of MMP8” value was “did not show any cleavage to individual tiles”.
For the substance RGDS, the “increase in binding efficiency on constraining in a cyclic conformation” value in the test on integrin was “several orders of magnitude”.
